Values quoted from earlier work, collected in publication PMC12043044.

Molecular target: Ubiquitin (UniProt P0CG48)

Sequence of Sla1 SH3-3 (P32790 350-418): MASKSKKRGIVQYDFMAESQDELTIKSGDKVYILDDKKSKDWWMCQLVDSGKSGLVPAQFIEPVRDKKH

- Kd: 40 µM
Substance: Sla1 SH3-3 (from UniProt P32790)
